Laboratory results from patent publication US20240191241, “APTAMERS FOR USE IN THE […] OF CORONAVIRIDAE INFECTIONS” (Berlin Cures GmbH, published 2024).

Key:
[1] = target: T1, SARS-CoV-2 RNA-dependent RNA polymerase peptide HRFYRLAN (SARS-CoV-2); test: ITC; 1:1 stoichiometry; 50 mM sodium phosphate, 150 mM NaCl, pH 7.06, 25 C; quadruplex induction also by NMR; Kd not given; conditions: tags: isolated peptide; G4
T1 chain: HRFYRLAN

[2] = target: T2, SARS-CoV-2 spike receptor-binding domain control peptide NRKRISN (SARS-CoV-2); test: NMR: nearly complete absence of quadruplex formation; also used as control in ITC (50 mM sodium phosphate, 150 mM NaCl, pH 7.16, 25 C); conditions: tags: isolated peptide; G4
T2 chain: NRKRISN

[3] = target: T3, SARS-CoV-2 RNA-dependent RNA polymerase peptide LYRNRDV (SARS-CoV-2); test: NMR; quadruplex fold induced by peptide; 90/10 H2O/D2O, 298 K; conditions: tags: isolated peptide; G4
T3 chain: LYRNRDV

[4] = target: T4, SARS-CoV-2 spike receptor-binding domain peptide No. 4 (YRLFRK) (SARS-CoV-2); test: NMR; quadruplex imino signals induced by peptide; 1 mM each, 90/10 H2O/D2O, 298 K, no additives; conditions: tags: isolated peptide; G4
T4 chain: YRLFRK

Thrombin = Thrombin (Homo sapiens, UniProt P00734;P00734 P00734:328-363,P00734:364-622); test: ELONA

Binder: GGTTGGTGTGGTTGG (ssDNA) [BC007]
- binding result [1]: binds
- binding result [2]: no binding
- binding result [3]: binds
- binding result [4]: binds

Binder: GGTTGGTGTGGTTGG (ssDNA) [BC007 5'-biotinylated]
- binding result (Thrombin): binds
